This is an account of results in paper PMC9405973, “Altered Conformational Landscape upon Sensing Guanine Nucleotides in a Disease Mutant of Elongation Factor-like 1 (EFL1) GTPase” (Biomolecules, 2022).

In data set [1] the test system is Tif6 bound to 60S subunits. Put plainly: Tif6 release assay with purified yeast components. Format: biochemical, Saccharomyces cerevisiae. Particulars: 50 nM Efl1 variant, 50 nM Sdo1, 100 µM GTP, 30 °C, 10 min. The protocol: The release of Tif6 (yeast orthologue of eIF6) was performed as previously described in [3, 15]. Reaction mixtures contained 10 nM 60S subunits, 40 nM Tif6, 50 nM Efl1 variant, 50 nM Sdo1, and 100 µM GTP in buffer of 10 mM Tris-HCl at pH 7.4, 75 mM KCl, and 1.5 mM MgCl2 supplemented with RNAse inhibitors (Promega, Madison, WI, USA) and protease inhibitors free of EDTA (GoldBio, St. Louis, MO, USA). GTP was omitted in the negative control, and 50 mM EDTA was added as the positive control to disassemble the 60S ribosomal subunits. Reaction mixtures of 100 µL were incubated at 30 °C for 10 min and added on top of 150 µL of a 30% sucrose cushion prepared in the same buffer. Samples were centrifuged at 476,000× g for 30 min in an Optima tabletop MX ultracentrifuge with a TLA-100 rotor. The top 200 µL (free fraction) was recovered, and the remaining 50 µL was resuspended in 150 µL of the same buffer. Samples were precipitated with 30% trichloroacetic acid, electrophoresed in 10% Tris-glycine SDS-PAGE, transferred to a PVDF membrane, and immunoblotted with antibodies anti-eIF6 (PA531066; Thermo Scientific; dilution 1:3000) and anti-uL3 (OAAB09713; Aviva Systems Biology, San Diego, CA, USA; dilution 1:500) overnight at 4 °C. […] Signals were quantified using programme Image J version 1.8.0. […]

Details of data set [2]: method as in PMID 25991726, PMID 30780079, PMID 23831625. The note with it: wild-type Efl1; cited from earlier work.
The nature of data set [3]: Enzyme kinetics of GTP hydrolysis (PNP coupled assay, Michaelis–Menten). Format: biochemical, Saccharomyces cerevisiae. The note with it: isolated enzyme. The protocol: (§1) Finally, we measured the enzyme kinetics of mutant Efl1 R1086Q as an isolated enzyme and bound to Sdo1 using an enzymatic coupled assay with a purine nucleoside phosphorylase (PNP) enzyme. This analysis was extended to another disease mutation (EFL1 M882K) also located in domain IV of the GTPase using the equivalent yeast variant, Efl1 L910K [17]. The Km and kcat kinetic parameters were calculated using non-linear regression assuming a Michaelis–Menten model (Supplementary Table S1). […] The catalytic constant for mutant R1086Q and the wild-type enzyme consisted of 0.67 min^−1, and it was 0.58 min^−1 for mutant Efl1 L910K. […] In line with the proposed role of Sdo1 as a guanine exchange factor of Efl1, previous results have shown that the interaction of wild-type Efl1 with Sdo1 impacted its Km for GTP, decreasing its value 2–3-fold. The Km values for the complexes formed between Sdo1 and Efl1 mutants decreased by half with respect to their cognate-free counterpart and differed from each other. […] The measured Km value comprises all the microscopic rate constants of the individual reactions occurring in the enzyme, which include the binding to the substrate and product and the corresponding conformational changes.
Hydrolysis of GTP was measured using the Enzchek Phosphate Assay kit (Molecular Probes) as described by Webb. Standard reactions consisted of 100 µL containing 6 µM of Efl1 R1086Q and Efl1 L910K, 0.3 mM MESG, 1.0 U purine nucleoside phosphorylase (PNP) and the indicated amounts of GTP. Measurements done in the presence of effector protein contained 25 µM of Sdo1.
The reaction buffer consisted of 50 mM HEPES -KOH pH 7.5, 150 mM NaCl, 5 mM MgCl2.
Reactions were initiated and the GTPase was added after 3 min. Time courses were followed by recording the change in absorbance at 360 nm in a Cary 60 UV -Vis spectrophotometer (Agilent Technologies). Background absorbance was recorded prior to the addition of the GTPase and subtracted from the sample signals. The slope of the measured time courses corresponded to the GTP hydrolysis rate. The concentration of releas ed phosphate was estimated using a molar absorption coefficient at 360 nm of 14,386 M -1 cm-1 previously described in [2]. Data were analysed by nonlinear regression to the M ichaelis-Menten equation with the program Origin Version 5.0 (OriginLab, Co., Northampton, MA). […]
M HEPES-KOH pH 7.4, 2.5 mM magnesium acetate, 50 mM sucrose, 2 mM DTT, 0.1 mM PMSF, 0.1 mM benzamidine, 8 mM putrescine, 1 mM spermidine. […]
Dilution at the end of each titration was no longer than 2.5% of the initial volume. Data were corrected for the background signal by subtracting the fluorescence of the same ligand concentration without the GTPase in the reaction mixture.
(§2) Maximum emission at 440 nm was replotted as a function of nucleotide concentration and analysed

Substrate in data set [4]: Nc1nc2c(ncn2[C@@H]2O[C@H](COP(=O)(O)OP(=O)(O)OP(=O)(O)O)[C@@H](O)[C@H]2O)c(=O)[nH]1
The experiment in a line: GTP hydrolysis by PNP-coupled Enzchek phosphate assay (MESG, 360 nm), pH 7.5, 5 mM MgCl2, 6 µM Efl1 alone, Michaelis-Menten fit. It is filed as biochemical. The note with it: 25.0 °C. The protocol:
as §1
Hydrolysis of GTP was measured using the Enzchek Phosphate Assay kit (Molecular Probes) as described by Webb. […]
Reactions were initiated and the GTPase was added after 3 min. Time courses were followed by recording the change in absorbance at 360 nm in a Cary 60 UV -Vis spectrophotometer (Agilent Technologies). Background absorbance was recorded prior to the addition of the GTPase and subtracted from the sample signals. The slope of the measured time courses corresponded to the GTP hydrolysis rate. […] Data were analysed by nonlinear regression to the M ichaelis-Menten equation with the program Origin Version 5.0 (OriginLab, Co., Northampton, MA). […]
as §2

B1: Efl1 wild type (Saccharomyces cerevisiae S288C) (protein)
chain: MPRVESETYKRLQNDPSCIRNICIVAHVDHGKTSLSDSLLASNGIISQRLAGKIRFLDARPDEQLRGITMESSAISLYFRVLRKQEGSDEPLVSEHLVNLIDSPGHIDFSSEVSAASRLCDGAVVLVDVVEGVCSQTVTVLRQCWTEKLKPILVLNKIDRLITELQLTPQEAYIHLSKVIEQVNSVIGSFFANERQLDDLFWREQLEKNENAEYIEKDDSGIYFNPTDNNVIFASAIDGWGFNIGQLAKFYEQKLGAKRENLQKVLWGDFYMDPKTKKIINNKGLKGRSLKPLFTSLILENIWKIYQNIITSRDSEMVEKIAKTLNIKLLARDLRSKDDKQLLRTIMGQWLPVSTAVLLTVIEKLPSPLESQTDRLNTILVSESDTAAMDPRLLKAMKTCDKEGPVSAYVSKMLSIPREELPVESKRIASSDELMERSRKAREEALNAAKHAGMVENMAMMDLNDNSKNTSDLYKRAKDTVMTPEVGEQTKPKPSRNNDVFCVVSEPSSALDLEFEYEGEDDSDSQDNFGLDFVPTDIDPNDPLSSMFEYEEEDPLLESIKQISEDVNDEVDDIFDEKEECLVAFARIYSGTLRVGQEISVLGPKYDPKCPEEHIETAIITHLYLFMGKELVPLDVCPSGNIVGIRGLAGKVLKSGTLIEKGVQGVNLAGVNFHFTPIVRVAVEPANPVEMSKLVRGLKLLDQADPCVHTYVENTGEHILCTAGELHLERCLKDLTERFAGIEITHSEPAIPYRETFLSASDMNPPQNSQLGRGVHELLLSQYKITFRTFPLSGKVTDFLSQHQNSIKNILKTSTSSMDPVIESTGSSFLDKKSLLVAFEEVINQEEKSRELLSGFKVKLAGFGPSRVGCNILLSQDNLLGSLFEGTPAAFEYSDSIKNGFQLAVSEGPLANEPVQGMCVLVESVHKMSQDEIESIEDPRYQQHIVDLSGRLITSTRDAIHEAFLDWSPRIMWAIYSCDIQTSVDVLGKVYAVILQRHGKIISEEMKEGTPFFQIEAHVPVVEAFGLSEDIRKRTSGAAQPQLVFSGFECIDLDPFWVPTTEEELEELGDTADRENIARKHMNAIRRRKGLFIEEKVVENAEKQRTLKKN
notes: recombinantly expressed in S. cerevisiae; isolated GTPase
With B1, the “release of Tif6 from the 60S subunit (distribution of Tif6 in free and bound fraction, immunoblot)” value in data set [1] is given as “Tif6 was enriched in the free fraction”. For the same molecule, the “fold decrease of Km for GTP upon interaction with Sdo1” value in data set [2] is 2–3 fold. For the same molecule, the catalytic constant (kcat) (usually the maximal rate divided by the concentration of active sites) in data set [3] stood at 0.0112 s⁻¹. Also, the Km (in general, the concentration of substrate that gives half-maximal velocity) in data set [4] was found to be 155 µM.
